Test results taken from the nanobody polyreactivity screen of Harvey et al. (2022).

Assay: yeast display, Sf9 membrane polyspecificity reagent, FACS + sequencing; frameworks hold sequencing errors
Procedure, shortened: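 Nanobodies came from a synthetic yeast display library in Saccharomyces cerevisiae BJ5465, induced with galactose for 36–48 hours and stained for 1 hour at 4 °C with 10% biotinylated, detergent-solubilized Sf9 membrane reagent. Cells were enriched on streptavidin microbeads and then FACS-sorted, with low and high (top ~1%) gates set on anti-HA fluorescence for expression and streptavidin fluorescence for reagent binding. Each polyreactivity label reflects the gate a clone came from. Genes were amplified by colony PCR, sequenced by MiSeq 2 × 250 and filtered by CDR length.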
With “QAQLVESGGGLVQEGGSLRLSCAASGSIFYGYAMGWSRQAPGKERELVATIRFITGSTYYADSVKGRFTISRDNAKNTVYLQMNSLKPEDTAVYYCAAVYVGYYDNYDYWGQGTQVTVSS” the “polyreactivity (PSR sort gate)” value was “low polyreactivity”.
In the case of “QDHHVESGGGLVQAGGSLRLICAASGSTFSWNTMGWYRPAPGKERDLVAAISWSTGRTYYADSVKGRFTISRDNAKNTVYLQMISLKPEDTAVYYCAARRFVTDGTRREYDYWGQGTQVTVSS”, the “polyreactivity (PSR sort gate)” value is reported as “high polyreactivity”.
With “QDHHVESGGGLVQARGTLRLSCAASGIIYSYYAMGWFRQAPGKEWELVAAITASGGSTYYADSVKGRFTISRDNAKNTVYLQMNSLKPQDTGVSYCAAGSFFLHLIGYSTVSYGRNYWGQGTQVTVAS” the “polyreactivity (PSR sort gate)” value was “high polyreactivity”.
For “QDHLVESGGGLVQAGGSLRLSCAASGITFVYYYMGWYRTAPGKERELVAAISSDGSTYYADSVKGRFTISRDNAKNTVYLQMNSLKPEDTAVYYCNAVAIVPYFYVVYDIFDYWGQVTQVTVSS”, the “polyreactivity (PSR sort gate)” value was “low polyreactivity”.
For “QDHLVESGGGLVQAGGSLRLSCAASGSIFGLNVMGWYRHAPGKERELVASITSGRSTNYADSVKVRFTISRDNAKNTVYLQMNSLKPVVTAVYYCYATRVRGWYVTRYYYWGQGTQVTVSA”, the “polyreactivity (PSR sort gate)” value was “high polyreactivity”.
For “QDHLVESGGGLVQAGGSLRLSCAASGSIFRRNAMGWYRQAPGKERELVAAIRYSGDRTYYADSVKGRFTISRDNAKNTVYLQMNSLKPEDTAVYYCAAKRSVSYYGYYYWGQGSQVTVSS”, the “polyreactivity (PSR sort gate)” value was “high polyreactivity”.
In the case of “QDHLVESWGGLIQAGCSLRISCAASGSITVYNAMGWYRQAPWKERELLAAITGGVTTNYADSVKGRFTISRDNAKTTFYLLMNSLKPEDTAVYYCAKSQIPFGLDSPVDYWGQGTQVNVSS”, the “polyreactivity (PSR sort gate)” value is reported as “low polyreactivity”.
For “QDKLVDSGGGLVQAGGSLLLSCAASGFIFLNNAMGWYRQAPGKQRELVAAITWSGGSTYYADSVKGRFTISRDNAKNTVYLQMNSLKPVDTAVYYCAADGWLYYGVGFYSSRRDYYWGQGTQVTVSS”, the “polyreactivity (PSR sort gate)” value was “low polyreactivity”.
In the case of “QDPLVESGGGLVQAGGSLRLSCAASGRLFYRNPMGWYRQAPGKERELVAAISSSGGGTYADSVKGRFTISRDNAKNTVYLQMNSLKPEDTAVYYCAAGPFSYSHYGRKFYYWGQGTQVTVSS”, the “polyreactivity (PSR sort gate)” value is reported as “high polyreactivity”.
With “QDPLVESGGLLVQAGGSLRLSCAASGFTFSRYAMGWYRQAPGKERELVAVIDNSGGTTYYADSVKGRFTISRDNAKNTVYLQMNSLKPEDTAVYYCAAKRIPRYYSASDYWGQGTQVTVSS” the “polyreactivity (PSR sort gate)” value was “low polyreactivity”.
For “QDQDVESGGGLVQARGSLPLSCAASGSIFAWYAMGWYRQSPGKERELLAVITSSDGSTHYADSVKGRFTISRDNAKNSVYLQMISLKPEDTAVYYCAAFRSLRESKGYWWEYYSWGQGTQVTVSS”, the “polyreactivity (PSR sort gate)” value was “low polyreactivity”.
In the case of “QDQHVDSGGGLVQAGGSLRLRCAASGFTIADYAMGWYRQAPGKERELVAAINRSGGRTYYADSVKGRFTISRDYAKNTVYLQMNMLKPEDTAVYYCAAYGITYHNSDSWGQGTQVTVSS”, the “polyreactivity (PSR sort gate)” value is reported as “high polyreactivity”.
For “QDQHVESGGCLVQEGGSLRLSCAASGRTFSSNVMGWYRQAPGKVRELVASITWSGGTTYYADSVKGRFTISRDNAKNTVYLQMNSLKPEDTAVYYCNAADERSQGWVGYDHWGQCTQVTVSS”, the “polyreactivity (PSR sort gate)” value was “low polyreactivity”.
In the case of “QDQHVESGGGLVQAGGRLSLICAASAFISVRNAMGWYRQAPGKERELVAAISSGDTTDYADSLKGRFTISRDNAKNTVYLLMNSLKPEDTAVYYCAAVYSGRYYYWGQGTQVTVSS”, the “polyreactivity (PSR sort gate)” value is reported as “low polyreactivity”.
In the case of “QDQHVESGGGLVQAGGSLRLICAASGINFDYYNMGWYRQAPGKERELVATISSGGTSTFYADSVKGRFTISRDNAKNTVYLQMNSLKPDDSAVYYCAKDRPGWVHRRPSGGFDYWGQGTQVTVSS”, the “polyreactivity (PSR sort gate)” value is reported as “low polyreactivity”.
In the case of “QDQHVESGGGLVQAGGSLRLICAASGLIFGYYAIGWYRLAPGKERELVAAITSDSSTNYADSVKGRFTISRDNAKNTVYLHMNSLKPVDTAVYYCAADIMTRRGYYYWGHGTQVTVSS”, the “polyreactivity (PSR sort gate)” value is reported as “high polyreactivity”.
For “QDQHVESGGGLVQAGGSLRLICDASGGIFGTNDMGWYRQAPGKERELVAAITSDSGATYYADSVKGRFTISRDNAKNTVYLQMNSLKPEDTAVYYCAAEDGPWFYRYGYWGQGTQVTVSS”, the “polyreactivity (PSR sort gate)” value was “low polyreactivity”.
For “QDQHVESGGGLVQAGGSLRLSCAASGFTFDFYAMGWYRQAPGKERELVAAISKNDGTTYYADSVKGRFTISRDNAKNTVYLQMNSLKPEDTGVYYCAAESGYPVYTYVSSGDYWGQGTQVTVSS”, the “polyreactivity (PSR sort gate)” value was “low polyreactivity”.
For “QDQHVESGGGLVQAGGSLRLSCAASGGNYAGYAMGWYRQAAGKARELVAAISWRGTSTYYADSVKGRFTISRDNAKNTVYLELNSLKPEDTAVYYCAAEAASWWGYGYWGQGTQVTVSS”, the “polyreactivity (PSR sort gate)” value was “high polyreactivity”.
With “QDQHVESGGGLVQAGGSLRLSCAASGILYNYYAMGWYRQAHGKERELVAAISASGGSTYYADSVKGRFTISRDNAKNTVYLQMYSLKPEDTAVYYCNAAVLYRQYGRGDYLGQGTQVTVSS” the “polyreactivity (PSR sort gate)” value was “low polyreactivity”.
In the case of “QDQHVESGGGLVQAGGSLRLSCAASGRISKRNVMGWYRPAPGKERELVACISSTGSTSYADSVKGRFTISRDNAKYTVYLQMNSLNPEDTAVYYCAARGQATYNWGQGTQVTVSS”, the “polyreactivity (PSR sort gate)” value is reported as “high polyreactivity”.
With “QDQHVESGGGLVQAGGSLRLSCAASGRTFRLYAMGWYRQAPGKERELVAAITRGGRTNYADSVKGRFTISRDNAKNTVYLQMNSLKPEDTAVYYCAARYVERHTDYYYWGQGTQVTVSS” the “polyreactivity (PSR sort gate)” value was “low polyreactivity”.
In the case of “QDQHVESGGGLVQAGGSLRLSCAASGRTFSYYTMGWYRQAPGKERELVAAISRRGGNTYYADSVKGRFTISRDNAKNTVYLQMNSLKPADTAVYYCAALSYAKHYDPSGYDYWGQGTQVTVSS”, the “polyreactivity (PSR sort gate)” value is reported as “high polyreactivity”.
In the case of “QDQHVESGGGLVQAGGSLRLSCAASGSIFWYYAMGWYRQEPGKERELVAAISRSGGSTYYADSVKGRFTISRDNAKNTVYLEMNSLKPEDTAVYYCAAGYSSLRRFGVYYWGQGTQVTVSS”, the “polyreactivity (PSR sort gate)” value is reported as “high polyreactivity”.
For “QDQHVESGGGLVQAGGSLRLSCAASGSTFHLYAMGWYRQAPGKERELVATITWRTGSTYYADSVKGRFTISRDNAKNTVYLQMNSLKPEDTAVYYCAAYPYRYSWLDYWGQGTQVTVSS”, the “polyreactivity (PSR sort gate)” value was “high polyreactivity”.
In the case of “QDQHVESGGGLVQAGGSLRLSCAASGSTFRYYAMGWYRQRPGKESEMVAAITRRGGSTYYADSVKGRFTISRDNAKYTVYLQMNSLKQADTAVYYCAAYRIYYSGYGYYYYWGQGTQVTVSS”, the “polyreactivity (PSR sort gate)” value is reported as “high polyreactivity”.
For “QDQHVESGGGLVQAGGSLRLSCAASGSTFVYYAMGWYRQAPGKERELVAVITWSGGRTYYADSVKGRFTISRDNAKNTVYLQMNSLKPEDTAGYYCAADPLSGYDYWGQGTQVTVSS”, the “polyreactivity (PSR sort gate)” value was “low polyreactivity”.
For “QDQHVESGGGLVQEGGSLRLSCAASGSTFWPYAMGWSRQAPGKERELVARINSGGNTNYADSVKGLFTISRDNAKNTVYLQMNSLKPEDTAVYYCAVRSLYEPRVYYRCVVGDGNYWGQGTQVTVSS”, the “polyreactivity (PSR sort gate)” value was “low polyreactivity”.
For “QDQHVESGGGLVQEGGSLRLSCASSSSTFEYYAMGWYRQPPGKERELVATISIDGRTNYADSVKGRFTISRDNAKNTVYLQMNSLKPEDTAVYYCAARPYWRHRYDYWVQGTQVTVSS”, the “polyreactivity (PSR sort gate)” value was “low polyreactivity”.
For “QDQHVESGGGVVQARGSLRLICDASGFTIQRSAMGWYRQAPGKERELVAAISSGGSTYYADSVKGRFTFSRDNAKNTVYLQMNSLKPEDTAVYYCAARPIPRYYGKFWRVDYWGQGTQVTVSS”, the “polyreactivity (PSR sort gate)” value was “high polyreactivity”.
In the case of “QDQHVESGRGLVQAGGSLRLSCAASGLIFPRNAMGWYRQAPGKERELVAVISRSGTSTYYADSVKGRFTISRDNAKNTVYLQMNSLKPEDTAVYYCAAYSRRGSSLRGRYGYWGQGTQVTVSS”, the “polyreactivity (PSR sort gate)” value is reported as “high polyreactivity”.
In the case of “QDQHVESGVGLVQEGGSLPLSCASSAFIIVKYAMGWYRKAPGKERELVAAITSGGSTSYADSVKGRFTISRDNAKNTVYLQMNRLKPEDTAVYYCAASTTAYAYVNYGYWGQGTQVTVSS”, the “polyreactivity (PSR sort gate)” value is reported as “low polyreactivity”.
For “QDQHVETGGRLVHAGCSLRISCAASGSTFTGYAMGWNRPPPGKERELVAAISSGGSTYYADSVKGRFTISRDNPKNTVYLQMNSLTPEDTAVYDCAAAPRWKASRLYYWGQCTQVTVSS”, the “polyreactivity (PSR sort gate)” value was “high polyreactivity”.
With “QDQIVESGGGLVQAGGSLRLTCAASGLNIYDNMGWYRQAPGKERELVAAISSSGGSTSYADSVKGRFTISRDNAKNTFYVQMNSLKPEDTAVYYCAADSYPAYLGFVGFDYWGQGTQVTVSS” the “polyreactivity (PSR sort gate)” value was “low polyreactivity”.
With “QDQLEESALGLVQAGGSLRLICAASGRTFQYYTMAWYRPAPAKEREFVAAIRDSGGSTYYADSVKGRFTISRDNAKNTVYLQMNSLKPEDTAVYYCNKVPNGPSNYDYWGQGTQVTVSS” the “polyreactivity (PSR sort gate)” value was “high polyreactivity”.
With “QDQLEESGGGLRQAGGSLRLTCAASGIIFPYYTKGLYRQATGKEKLVAAISSRGGSTYYADSVKGRFTISRDNAKNTVYLQMTSLKPEDTAVYYCAAKNVYHDDFWGQGTQVTVSS” the “polyreactivity (PSR sort gate)” value was “high polyreactivity”.
For “QDQLEESGGGLVQAGGSLRLSCAASGNIFPRNAMGWYRQAAGKERELVAAISASGDNTYYADSVKGRFTISRDNAKNTVYLQMNSLKPEDTAVYYCSAGTFYESIQPYESVAYYYWGQGTQVTVSS”, the “polyreactivity (PSR sort gate)” value was “low polyreactivity”.
With “QDQLEESGGGLVQAGGSLRLSCAASGSTFLVYAMGWYRQAPGKEREFVAAISWSGGSTFYADSVKGRFTISRDNAKNTVYLQMNSLKPEDTAVYYCAARQAGYSGRKLYYWGQGTQVTVSS” the “polyreactivity (PSR sort gate)” value was “low polyreactivity”.
With “QDQLEESGGGLVQAGGSLRLSSAASGGTLYLYDMGWYRQAPGKERELVAAISYNGGSTYADSVKGRFTISRDNAKNTFYLQMNSLNPEDSAVYYCAADRPPRGLGGYWGQGTLVTVSS” the “polyreactivity (PSR sort gate)” value was “low polyreactivity”.
For “QDQLEETGGGLVHAGGSLRLSCAASGRTFVVYDMGWYRQAPGKERELVAGIRWRGGSTYYADSVKGRFTISRDNAKNSVYLQMNSLKPVDTAVYYCAADVYLVKYDYWGQGTQVTVSS”, the “polyreactivity (PSR sort gate)” value was “low polyreactivity”.
In the case of “QDQLGDSGGGLVQAGGSLSLSCAASGFIFYRYAMGWYRQAPGKERELVAAISGRGGSTYYADSVKGRFTISRDNAKNTVYLQMNSLKPEDTAVYYCATKPRSDSYGNYDYWGQGTQVTVSS”, the “polyreactivity (PSR sort gate)” value is reported as “high polyreactivity”.
In the case of “QDQLGESGGGLVQAGGSLRLSCAASGLTFYFYAMGWYRPAPGKEREFVATISFSGGSTYYADSVKGRFTISRDNAKNTVYIQMNSLKPEDTAVYYCNAESDYYWYPYNYWGQGTQVTVSS”, the “polyreactivity (PSR sort gate)” value is reported as “low polyreactivity”.
In the case of “QDQLVASGGGLVQAGGSSRLSCAASGRTFWSNAMGWYRQAPGKERELVAVITSSGGRTYYADSVKGRFTISRDNAKNTVYLQMNSLKPEDTAVYYCNVVCSPSLGVRTKYGYWGQGTHVTVSS”, the “polyreactivity (PSR sort gate)” value is reported as “high polyreactivity”.
